These are literature values, as cited in US8679781B2, “In vitro peptide expression library” (Isogenica Limited, priority 2002, dated 2014).

This data set concerns the target double stranded DNA oestrogen receptor target HRE nucleotide sequence. Conditions: fragment expressed in E. coli; similar to the parent molecule; read-out: affinity.

B1: oestrogen receptor DNA binding domain fragment (amino acids 176-282): oestrogen receptor DNA binding domain fragment (amino acids 176-282) expressed in E. coli (protein, UniProt P03372 176-282, looked up, fragment)
chain: MESAKETRYCAVCNDYASGYHYGVWSCEGCKAFFKRSIQGHNDYMCPATNQCTIDKNRRKSCQACRLRKCYEVGMMKGGIRKDRRGGRMLKHKRQRDDGEGRGEVGS
Take B1: the Kd is 0.5 nM.
